Data as given in patent US20220211858A1, “TUBULAR SUPRAMOLECULAR POLYMERS” (priority 2019, published 2022).
Where two headings read alike, the source gives them in different places.

Key:
[1] = test system: HT-29 cells
Text: Antitumor efficacy study of SAPDs at the same dose on a HT-29 tumor model. […] When the averaged tumor size reached 75-95 mm^3, mice were randomly divided into six groups. […] The tumor volumes and body weights were monitored and recorded every two or three days. The tumor volume was estimated by measuring the length and width with calipers and using the equation “tumor volume=(length×width^2)/2”. Mice were euthanized once the tumor volume reached 1000 mm^3.

[2] = test system: HT-29 cells; assay: Antitumor efficacy of SAPDs at near MTD on a HT-29 tumor model; conditions: day 28; SAPD 1 12 mg/kg, SAPD 2-4 36 mg/kg i.v. days 1, 5, 9; irinotecan 100 mg/kg i.p. days 1, 8, 15
Experimental: Antitumor efficacy study of SAPDs at near MTD on a HT-29 tumor model. HT-29 tumor model was established as described above. When the averaged tumor size reached 70-110 mm^3, mice were randomly divided into six groups (n=5 for each group). Four different SAPDs were all i.v. dosed at near or slightly lower than their estimated MTDs. […] The irinotecan (i.p. injection, 100 mg/kg at days 1, 8 and 15) and the PBS groups were used as controls. All other protocols were similar to those in the above-mentioned efficacy study.

[3] = Drug release and chemical stability of SAPDs in PBS with or without GSH; assay type: physicochemical
Experimental: Drug release and chemical stability studies of SAPDs. Drug release studies of four SAPDs were performed at a concentration of 200 μM in PBS buffer with or without the reducing agent glutathione (GSH). Briefly, 400 μM stock solutions of SAPDs in water were prepared and aged overnight. Stock solutions containing 2×PBS (20 mM) with or without 20 mM GSH were prepared 1 h before the experiment, and the pH was tuned to 7.4 with NaOH. The prodrug solutions were further diluted to 200 μM with 20 mM (2×) PBS buffer with or without GSH (20 mM) to give final solutions of 200 μM prodrug, 10 mM PBS and with or without 10 mM GSH. Three replicates of each SAPD were prepared with or without GSH and were incubated at 37° C. Samples with GSH were collected at 0 min, 5 min, 10 min, 15 min, 30 min, 1 h and 2 h, while samples without GSH were collected at 0 h, 6 h, 12 h, 24 h, 48 h, 72 h, 96 h and 120 h. To prevent further reaction after sample collection, the collected samples (50 μL each point) were acidified by adding 0.2 μL of 2M HCl, frozen with liquid nitrogen and stored at −30° C. The release profile was determined by analytical RP-HPLC using the following conditions: Varian Pursuit XRs C18 (5 μm, 150×4.6 mm); 362 nm detection wavelength; 1 mL/min flow rate; the gradient began at 15% to 85% acetonitrile containing 0.1% TFA by 15 min and back to initial gradient at 18 min. The calculated data points were plotted as a percentage of the total CPT concentration against time. Representative HPLC traces over time were also integrated for comparison.

[4] = Zeta potential measurement; assay type: physicochemical
Experimental: TT solutions of 200 μM in 1×-DPBS buffer (pH=7.4) were prepared by directly mixing identical volumes of a 400 μM aqueous TT solution and 2×-DPBS buffer (pH=7.4). In some embodiments, solutions at a concentration of 2 mM in PBS buffer (pH=7.4) were prepared and aged overnight prior to zeta potential measurement. TT solutions of 200 μM in 1×-DPBS buffer (pH=5.0) were prepared by mixing identical volumes of a 400 μM aqueous TT solution and 2×-DPBS buffer (pH=5.0), which was pretreated with 6 M HCl. The zeta potential measurements were performed on a Zetasizer Nano ZS90 (Malvern Instruments Ltd., UK). The prepared solutions were loaded in capillary cells and equilibrated for 2 min prior to measurement. The average values and their standard deviations are calculated from three replicate measurements. The zeta potential of the assembled structures was obtained by measuring the electrophoretic movement of the nanostructures under the applied electric field, where the movement velocity is determined by phase analysis light scattering. Variations of the zeta potential value over time were determined by measuring the solutions at different aging time points (1, 2, 4 and 7 days) and are plotted in FIG. 10.

[5] = Maximum tolerated dose (MTD) dose escalation study; assay type: in vivo, athymic nude mice; conditions: for Maximum % BW loss: n=3
Experimental: Maximum tolerated dose (MTD) studies. MTD of SAPD 1 has been previously determined in our lab (Table 1). MTDs of other SAPDs were determined by dose escalation studies in healthy female athymic nude mice (Charles River, 12-13 weeks old). A single intravenous (i.v.) injection of SAPD was dosed at day 1 and the body weights of each mouse (n=3) were recorded every day for six days and every the other day until two weeks. The dosing volume was determined based upon a ratio of 200 μL for a 20 g mouse. Doses of SAPDs used in the studied were 108, 72, 54, 45, 36 and 18 mg/kg (CPT equivalent).

In the case of `CC[C@]1(OC(=O)OCCSSC[C@@H](NC(C)=O)C(=O)N[C@@H](CCCCNC(=O)[C@@H](CSSCCOC(=O)O[C@]2(CC)C(=O)OCc3c2cc2n(c3=O)Cc3cc4ccccc4nc3-2)NC(C)=O)C(=O)N[C@@H](CCCCNC(=O)CCOCCOCCOCCOCCOC)C(=O)N[C@@H](CCCCNC(=O)CCOCCOCCOCCOCCOC)C(N)=O)C(=O)OCc2c1cc1n(c2=O)Cc2cc3ccccc3nc2-1` [TT 1], the “toxicity according to body weight change” value ([1]; 10 mg/kg i.v.) is reported as “most toxicity”, the median survival ([1]; SAPDs 10 mg/kg i.v. days 1, 5, 9, 13, irinotecan 100 mg/kg i.p. days 1, 8, 15) is reported as 56 days and the mean tumor volume ([1]; day 25, SAPDs 10 mg/kg (CPT equivalent) i.v. days 1, 5, 9, 13, irinotecan 100 mg/kg i.p. days 1, 8, 15) is reported as 60 mm^3. For the same compound, the mean tumor volume [2] was 172 mm^3, the prodrug degraded ([3]; 200 μM, 37° C., 10 mM GSH, within 5 min) was 8% and the conjugates remaining intact ([3]; 200 μM, without GSH, 120 h) was 96%. The remaining drugs ([3]; without GSH, 96 h) was 95%, the ζ-Potential ([4]; 1×-DPBS buffer, pH 5.0, 200 μM) was −5 mV and the ζ-Potential ([4]; 1×-DPBS buffer, pH 7.4, 200 μM) was −5 mV. For the same compound, the ζ-Potential ([4]; assembled SAPDs in PBS buffer) was −6.5 mV, the MTD ([5]; female, athymic nude, mouse, in vivo, iv, single i.v. injection, CPT equivalent, healthy athymic nude mice) was 24 mg/kg and the Survival/Total ([5]; single i.v. dose 4.5 mg/kg) was 3/3. The “Maximum % BW loss” value ([5]; single i.v. dose 4.5 mg/kg (CPT equivalent)) was 0%, the Survival/Total ([5]; single i.v. dose 9 mg/kg) was 3/3 and the “day of maximum BW loss” value ([5]; single i.v. dose 9 mg/kg) was 1 days. The “Maximum % BW loss” value ([5]; single i.v. dose 9 mg/kg (CPT equivalent)) was 5.1%, the Survival/Total ([5]; single i.v. dose 15 mg/kg) was 3/3 and the “day of maximum BW loss” value ([5]; single i.v. dose 15 mg/kg) was 2 days. The “Maximum % BW loss” value ([5]; single i.v. dose 15 mg/kg (CPT equivalent)) was 5.0%, the Survival/Total ([5]; single i.v. dose 18 mg/kg) was 3/3 and the “day of maximum BW loss” value ([5]; single i.v. dose 18 mg/kg) was 1 days. For the same compound, the “Maximum % BW loss” value ([5]; single i.v. dose 18 mg/kg (CPT equivalent)) was 6.5%, the Survival/Total ([5]; single i.v. dose 24 mg/kg) was 3/3 and the “day of maximum BW loss” value ([5]; single i.v. dose 24 mg/kg) was 3 days. The “Maximum % BW loss” value ([5]; single i.v. dose 24 mg/kg (CPT equivalent)) was 9.8%, the Survival/Total ([5]; single i.v. dose 30 mg/kg) was 1/3 and the “day of maximum BW loss” value ([5]; single i.v. dose 30 mg/kg) was 4 days. The “Maximum % BW loss” value ([5]; single i.v. dose 30 mg/kg (CPT equivalent)) was 20.6%, the Survival/Total ([5]; single i.v. dose 36 mg/kg) was 0/3 and the “day of maximum BW loss” value ([5]; single i.v. dose 36 mg/kg) was 3 days. For the same compound, the “Maximum % BW loss” value ([5]; single i.v. dose 36 mg/kg (CPT equivalent)) was 21.2%, the Survival/Total ([5]; single i.v. dose 54 mg/kg) was 0/3 and the “day of maximum BW loss” value ([5]; single i.v. dose 54 mg/kg) was 3 days. For the same compound, the “Maximum % BW loss” value ([5]; single i.v. dose 54 mg/kg (CPT equivalent)) was 20%.
